Laboratory results published in publication PMC11457862.

T1: biotinylated human IL-2Rβ ectodomain (amino acids 1-214) (human) (UniProt P14784)
T1 sequence (chain, biotin on the biotin acceptor peptide (BirA ligase)): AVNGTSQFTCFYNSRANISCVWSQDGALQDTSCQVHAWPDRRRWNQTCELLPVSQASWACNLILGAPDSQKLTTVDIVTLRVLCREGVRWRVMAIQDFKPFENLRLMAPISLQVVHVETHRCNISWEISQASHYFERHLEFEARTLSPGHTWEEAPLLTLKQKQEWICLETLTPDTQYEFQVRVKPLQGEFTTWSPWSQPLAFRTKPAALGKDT


Assays:
[1] = biological target: human IL-2 (amino acids 1-133), soluble, P60568; experiment: yeast display competition (IL-2 binding in the presence of soluble IL-2Rα competitor); conditions: chain shown with the change; IL-2 5 nM; IC50 is the concentration of soluble IL-2Rα competitor (Dm27)
[2] = biological target: human IL-2 (amino acids 1-133), soluble, P60568; experiment: yeast display titration; conditions: chain shown with the change
[3] = biological target: biotinylated human IL-2Rα ectodomain (amino acids 1-217) (human); experiment: BLI; same set-up as a1; equilibrium titration of the response at the end of the association phase, first-order fit (Figures 2 and 3, Supplemental Table 1)
[4] = biological target: T1, biotinylated human IL-2Rβ ectodomain (amino acids 1-214) (human); experiment: as above
[5] = biological target: T1, biotinylated human IL-2Rβ ectodomain (amino acids 1-214) (human); experiment: BLI; same set-up as a3; equilibrium titration, first-order fit (Supplemental Figure 4A-C, Supplemental Table 4)

Binder | IC50 [1] [nM] | EC50 [2] [nM] | Kd [3] [nM] | Kd [4] [nM] | Kd [5] [nM]
yeast-displayed 602 scFv T101S; F225S; G227D (protein) chain 1: EVQLQESGPGLVAPSQSLSITCTVSGFSLTNYDISWIRQPPGKGLEWLGVIWTGGGTNYNSGFMSRLSITKDNSKSQVFLKMNSLQTDDTAIYYCVRQGRSPYWGQGTLVTVSA chain 2: DIQVTQSPSSLSVSLGDRVTITCKASKDIYNRLAWYQQKPGNAPRLLISGATSLETGVPSRFSGSGSGKDYTLTITSLQTEDVATYYCQQSWDTPYTFGGGTKLEIK | 1120 | 0.4 | – | – | –
anti-human IL-2 antibody 602 (MAB602), recombinant mouse IgG2a kappa (antibody, V domains shown) VH: EVQLQESGPGLVAPSQSLSITCTVSGFSLTNYDISWIRQPPGKGLEWLGVIWTGGGTNYNSGFMSRLSITKDNSKSQVFLKMNSLQTDDTAIYYCVRQGRTPYWGQGTLVTVSA VL: DIQVTQSPSSLSVSLGDRVTITCKASKDIYNRLAWYQQKPGNAPRLLISGATSLETGVPSRFSGSGSGKDYTLTITSLQTEDVATYYCQQFWGTPYTFGGGTKLEIK | – | – | > 2000 | > 2000 | > 2000
